B1: Auxin-responsive protein IAA12 (Arabidopsis thaliana (Mouse-ear cress)), Q38830 (parent)
chain: MRGVSELEVGKSNLPAESELELGLGLSLGGGAWKERGRILTAKDFPSVGSKRSAESSSHQGASPPRSSQVVGWPPIGLHRMNSLVNNQAMKAARAEEGDGEKKVVKNDELKDVSMKVNPKVQGLGFVKVNMDGVGIGRKVDMRAHSSYENLAQTLEEMFFGMTGTTCREKVKPLRLLDGSSDFVLTYEDKEGDWMLVGDVPWRMFINSVKRLRIMGTSEASGLAPRRQEQKDRQRNNPV
partner: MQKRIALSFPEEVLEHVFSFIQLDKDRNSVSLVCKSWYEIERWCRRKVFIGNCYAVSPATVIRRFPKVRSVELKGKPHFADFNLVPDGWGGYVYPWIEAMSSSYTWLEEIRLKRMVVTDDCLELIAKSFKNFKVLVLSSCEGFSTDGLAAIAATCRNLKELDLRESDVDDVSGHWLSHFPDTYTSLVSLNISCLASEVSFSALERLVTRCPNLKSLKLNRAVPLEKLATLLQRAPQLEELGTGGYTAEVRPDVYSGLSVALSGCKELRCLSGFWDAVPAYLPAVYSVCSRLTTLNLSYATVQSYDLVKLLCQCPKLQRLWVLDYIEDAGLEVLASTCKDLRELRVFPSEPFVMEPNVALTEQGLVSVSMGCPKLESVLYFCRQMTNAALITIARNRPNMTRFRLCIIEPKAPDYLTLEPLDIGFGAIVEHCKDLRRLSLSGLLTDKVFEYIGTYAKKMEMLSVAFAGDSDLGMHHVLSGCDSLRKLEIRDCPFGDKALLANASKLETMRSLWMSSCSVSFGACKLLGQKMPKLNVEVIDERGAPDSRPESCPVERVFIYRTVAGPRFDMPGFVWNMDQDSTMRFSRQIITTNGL
B2: Auxin-responsive protein IAA12 (Arabidopsis thaliana (Mouse-ear cress)), Q38830 (parent)
chain: B1 chain
partner: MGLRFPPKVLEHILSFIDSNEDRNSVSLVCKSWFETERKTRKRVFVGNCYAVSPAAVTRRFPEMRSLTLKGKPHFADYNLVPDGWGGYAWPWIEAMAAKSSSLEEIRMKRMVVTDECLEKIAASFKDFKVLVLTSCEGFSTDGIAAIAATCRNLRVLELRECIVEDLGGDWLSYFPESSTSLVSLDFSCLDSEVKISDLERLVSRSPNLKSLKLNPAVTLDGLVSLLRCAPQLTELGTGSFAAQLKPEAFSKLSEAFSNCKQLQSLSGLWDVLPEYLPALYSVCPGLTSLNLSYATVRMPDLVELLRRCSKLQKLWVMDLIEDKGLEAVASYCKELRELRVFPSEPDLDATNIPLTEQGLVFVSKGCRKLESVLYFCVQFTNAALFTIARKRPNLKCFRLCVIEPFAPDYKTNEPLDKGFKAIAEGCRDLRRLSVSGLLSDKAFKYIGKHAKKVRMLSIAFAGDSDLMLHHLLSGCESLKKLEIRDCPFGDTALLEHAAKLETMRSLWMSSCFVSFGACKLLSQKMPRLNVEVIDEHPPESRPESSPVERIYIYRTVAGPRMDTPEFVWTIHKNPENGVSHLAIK
B3: Auxin-responsive protein IAA12 (Arabidopsis thaliana (Mouse-ear cress)), Q38830 (parent)
chain: B1 chain
partner: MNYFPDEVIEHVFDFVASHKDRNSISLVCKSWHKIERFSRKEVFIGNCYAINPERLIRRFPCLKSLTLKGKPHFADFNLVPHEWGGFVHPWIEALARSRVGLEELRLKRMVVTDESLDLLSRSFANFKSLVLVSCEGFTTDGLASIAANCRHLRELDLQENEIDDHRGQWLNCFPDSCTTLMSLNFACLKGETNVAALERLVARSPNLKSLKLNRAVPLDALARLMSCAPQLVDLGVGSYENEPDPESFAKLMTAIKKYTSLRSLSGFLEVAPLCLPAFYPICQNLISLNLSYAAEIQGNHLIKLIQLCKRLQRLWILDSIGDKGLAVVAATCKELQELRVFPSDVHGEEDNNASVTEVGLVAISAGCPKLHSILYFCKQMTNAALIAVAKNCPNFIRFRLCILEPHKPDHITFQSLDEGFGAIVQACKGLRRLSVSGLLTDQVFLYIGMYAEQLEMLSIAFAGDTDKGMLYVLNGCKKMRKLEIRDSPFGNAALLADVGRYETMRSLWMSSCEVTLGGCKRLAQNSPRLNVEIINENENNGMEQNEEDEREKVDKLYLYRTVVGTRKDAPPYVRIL

Variants of: B1
Details: with tir1_arath TIR1, Q570C0

Variant | effect of a mutation on the interaction
P74S | decreasing interaction

Variants of: B2
Details: with grh1_arath GRH1, Q9ZR12

Variant | effect of a mutation on the interaction
P74S | decreasing interaction

Variants of: B3
Details: with afb3_arath AFB3, Q9LPW7

Variant | effect of a mutation on the interaction
P74S | decreasing interaction

From IntAct's records for PubMed 15992545
